The RNAGym collection of RNA variant scans (doi:10.7554/elife.90254)

B1: LINE1-full (parent)
chain: UACGUAGGUGGUUUUCCCCUGAUAGUGCUAAGGGGGCCUGGAAGUUUGGACUGGGCAGAGCUCAACACAGCGUGGCAAAGUGGCUGUGGCUAGACUGCCUCUCUGGAUUCCUCGUCACUCAGCAGGGCAUCUCUGAGAGAAAUGCC

Variants of: B1
Assay: self-cleavage, relative activity (ratio to wild type); higher = more cleavage; in vitro, sequencing; the parent is a self-cleaving ribozyme
U13C G41U gave a self-cleavage of 1.14.
With U14A G144A the self-cleavage was 1.12.
In the case of C98A, the self-cleavage is reported as 0.17.
With U85A U109C the self-cleavage was 0.07.
With C51A A67U the self-cleavage was 0.1.
Variant U96A A107G has a self-cleavage of 0.08.
For U112C A138G, the self-cleavage was 1.58.
In the case of A30G A78G, the self-cleavage is reported as 1.34.
Variant A141U A142G has a self-cleavage of 1.79.
U12A U132C showed a self-cleavage of 1.41.
With U14G A67U the self-cleavage was 0.39.
With U20A U26C the self-cleavage was 1.11.
G60C U109C showed a self-cleavage of 0.1.
In the case of A64G U85A, the self-cleavage is reported as 0.07.
U46C U73C gave a self-cleavage of 2.17.
With C17U U104C the self-cleavage was 1.33.
U47G A65G showed a self-cleavage of 0.1.
In the case of A129C U132C, the self-cleavage is reported as 0.96.
C3U A65G showed a self-cleavage of 0.17.
U87G U115A showed a self-cleavage of 0.24.
U52C U96C gave a self-cleavage of 0.02.
With G139U the self-cleavage was 1.31.
In the case of G34A C95A, the self-cleavage is reported as 0.07.
For U130C C146U, the self-cleavage was 1.52.
C71U C120U gave a self-cleavage of 2.76.
Work on U15C G88A yielded a self-cleavage of 0.06.
U13A G60C gave a self-cleavage of 0.
C19U U102A showed a self-cleavage of 1.19.
In the case of U29C G122A, the self-cleavage is reported as 1.68.
Variant U15C U81A has a self-cleavage of 2.14.
G32C U108C gave a self-cleavage of 1.55.
For A124U A142G, the self-cleavage was 1.51.
Work on U45A U109A yielded a self-cleavage of 0.94.
U102A A117U showed a self-cleavage of 1.37.
Work on A78U G135A yielded a self-cleavage of 1.8.
A30G G89C gave a self-cleavage of 0.07.
U13C A92U gave a self-cleavage of 0.68.
Work on C71G U81C yielded a self-cleavage of 0.27.
Work on U46C G49A yielded a self-cleavage of 1.4.
Work on G7A A129C yielded a self-cleavage of 1.07.
Variant U52C U87G has a self-cleavage of 0.
Work on U62A C110U yielded a self-cleavage of 0.08.
Work on U96C U109A yielded a self-cleavage of 0.15.
In the case of A59G A69G, the self-cleavage is reported as 0.1.
With U13A U87A the self-cleavage was 0.07.
In the case of G58A A117U, the self-cleavage is reported as 0.05.
Work on C3U U143G yielded a self-cleavage of 0.
In the case of U91C A138G, the self-cleavage is reported as 1.98.
With U46A A142U the self-cleavage was 1.19.
In the case of A43G A140G, the self-cleavage is reported as 1.35.
A22G A121U gave a self-cleavage of 1.
G33U A64G showed a self-cleavage of 0.21.
For U13G U134A, the self-cleavage was 1.06.
With U62C G88U the self-cleavage was 0.04.
G4A U115A gave a self-cleavage of 1.14.
U85A A107G gave a self-cleavage of 0.08.
U20G G48A gave a self-cleavage of 0.43.
U115A C145U showed a self-cleavage of 1.3.
With A65G U104C the self-cleavage was 0.01.
In the case of G34C A50U, the self-cleavage is reported as 1.81.
Variant A30C A136U has a self-cleavage of 1.19.
U45C A140C showed a self-cleavage of 2.27.
U12C U104A showed a self-cleavage of 1.3.
Variant A64G C76U has a self-cleavage of 0.13.
U52C A64C gave a self-cleavage of 0.51.
In the case of A31G G32U, the self-cleavage is reported as 1.13.
U112A A124U gave a self-cleavage of 1.61.
With A2U A65U the self-cleavage was 0.23.
Variant A50U U134C has a self-cleavage of 0.98.
U14C G125A gave a self-cleavage of 1.46.
Variant U87A U109A has a self-cleavage of 0.08.
For G75A A124G, the self-cleavage was 0.72.
Work on A42G G75A yielded a self-cleavage of 1.14.
In the case of U13C A50G, the self-cleavage is reported as 0.63.
With U134A U143C the self-cleavage was 0.63.
U52G U104A gave a self-cleavage of 1.
U9A G33U gave a self-cleavage of 1.6.
Variant A67G C118A has a self-cleavage of 0.58.
U29A A65U gave a self-cleavage of 0.23.
Variant U134C A138U has a self-cleavage of 1.65.
Variant U39C G55A has a self-cleavage of 0.08.
G106U U132C gave a self-cleavage of 1.31.
U14C U26C showed a self-cleavage of 1.12.
U45C U134G gave a self-cleavage of 1.22.
Work on U119C A141C yielded a self-cleavage of 1.84.
For U62C A129G, the self-cleavage was 0.06.
Variant U62C U112C has a self-cleavage of 0.05.
Variant U29C U130C has a self-cleavage of 1.52.
In the case of A43U G105A, the self-cleavage is reported as 1.21.
In the case of A67G G144A, the self-cleavage is reported as 0.69.
Variant U29C C116A has a self-cleavage of 1.16.
For C38U U39A, the self-cleavage was 1.09.
C71U U130C showed a self-cleavage of 1.
A30U A121C gave a self-cleavage of 0.55.
In the case of C99A A124G, the self-cleavage is reported as 0.21.
U115C C116U gave a self-cleavage of 1.18.
U12A U23C showed a self-cleavage of 1.47.
In the case of U87A U112C, the self-cleavage is reported as 0.07.
Work on A30G A57C yielded a self-cleavage of 0.
Variant U115C U143A has a self-cleavage of 1.79.
For U15C U112C, the self-cleavage was 1.37.
In the case of G4A C98A, the self-cleavage is reported as 0.19.
For U1A U46G, the self-cleavage was 0.96.
Variant U23C U108A has a self-cleavage of 1.33.
For U39G A65G, the self-cleavage was 0.15.
With A42C A94G the self-cleavage was 0.28.
Variant A22G has a self-cleavage of 1.12.
C71U C111U gave a self-cleavage of 0.82.
In the case of C71A U130A, the self-cleavage is reported as 0.17.
With G93A U109G the self-cleavage was 0.06.
U29C A79U showed a self-cleavage of 2.16.
U29C A79G gave a self-cleavage of 1.16.
Variant U47C C84A has a self-cleavage of 0.15.
In the case of G89U A107G, the self-cleavage is reported as 0.04.
Work on U12G G54A yielded a self-cleavage of 0.63.
U15C G106A showed a self-cleavage of 1.26.
U9C U130G gave a self-cleavage of 0.74.
Variant U5C C90U has a self-cleavage of 0.11.
A57U A92G showed a self-cleavage of 0.07.
For U12G U108A, the self-cleavage was 0.77.
A43U G54A showed a self-cleavage of 0.56.
In the case of A24G A43U, the self-cleavage is reported as 1.54.
Variant A57C U143A has a self-cleavage of 0.22.
For G55A U85C, the self-cleavage was 0.06.
U52A A94U showed a self-cleavage of 0.52.
Variant U12C A50U has a self-cleavage of 1.54.
With A2U U52A the self-cleavage was 0.92.
With U20A C38A the self-cleavage was 1.01.
With G32A U47C the self-cleavage was 1.58.
Variant U73G A124G has a self-cleavage of 0.78.
With A136C U143A the self-cleavage was 1.51.
In the case of U73C U143C, the self-cleavage is reported as 2.13.
For U73A C99A, the self-cleavage was 0.92.
Work on U73C U112A yielded a self-cleavage of 1.41.
Work on U23C A121U yielded a self-cleavage of 0.66.
Work on G7U U73A yielded a self-cleavage of 1.14.
Variant U29C A30U has a self-cleavage of 1.23.
Variant U5A A69G has a self-cleavage of 0.45.
Variant A94G G105A has a self-cleavage of 0.18.
A67G C131A gave a self-cleavage of 0.72.
U102C U104C gave a self-cleavage of 0.95.
Variant U62C G114A has a self-cleavage of 0.05.
With U20G U81A the self-cleavage was 2.03.
Work on U115C C146U yielded a self-cleavage of 1.31.
In the case of A2G U26C, the self-cleavage is reported as 0.88.
C84A U130A showed a self-cleavage of 0.07.
U9C A43U showed a self-cleavage of 0.77.
With U13C A79U the self-cleavage was 1.53.
In the case of U13G A69G, the self-cleavage is reported as 0.67.
In the case of U73A A124U, the self-cleavage is reported as 1.4.
U134C A136G gave a self-cleavage of 1.75.
In the case of U47A A64U, the self-cleavage is reported as 0.44.
With U112C C113U the self-cleavage was 1.28.
A31U U73C showed a self-cleavage of 1.51.
For A22G A94U, the self-cleavage was 0.37.
A77G U100A gave a self-cleavage of 1.93.
Work on U52A A92G yielded a self-cleavage of 0.11.
With U73A A136G the self-cleavage was 1.61.
C17U U115C showed a self-cleavage of 1.48.
With G21U A65C the self-cleavage was 0.
A59U U143A showed a self-cleavage of 0.75.
Work on A22U G122A yielded a self-cleavage of 1.19.
Work on A117G U119G yielded a self-cleavage of 1.87.
In the case of U14C G33A, the self-cleavage is reported as 1.02.
Work on G41A U85G yielded a self-cleavage of 0.09.
In the case of U81C G89A, the self-cleavage is reported as 0.06.
Variant A117U A121U has a self-cleavage of 1.57.
